B1: Tp0136 of Treponema pallidum subsp. pallidum SS14 strain, expressed on the surface of B. burgdorferi B314 (natural protein)
chain: CDFTGIFAAIQSEVPIKTPSIPGAIYGLVKAGSKLYATNGRLWEKELNGTGSWQKVSSSSVPTDSDKKVMSIATDGNTFVLACVPGTGVYKHCVNGAGSSSTGTTASPSTETCSQHATLVGGTSKPFWLVPGGTGNNGNCGCGGGGGGSSSSSSSCIHIWLVPGGTGNNGNCGCGGGGGGSSSSSSSCIHIKVENTDEQFLDMGEGYVVTTKHLYTKNGSSSAGPAQCPGGGGGGGSSGGGGSSEYTKASCSFSTPILASVSDGCYHYILTKEKVYCRKQDTASSAASSPAQCPSSPSSSSSSSTNAGCEVAHGVDDPLCLAIFKHNGCEYLLIGGSRGYGEIKLEANSSGTNGTCMRLKESNVHKSPGQWGESSPTPKASAEQYRGTVGRFAVQKIYVVEKNGGGNGVAAGGAGCPANASSSSGGTSSTQRPDLYAAVGESSDTYTGLWKFDTTTCSWNRE
B2: Tp0136 of Treponema pallidum subsp. pallidum Nichols (Seattle-Nichols) strain, expressed on the surface of B. burgdorferi B314 (natural protein)
chain: B1 chain

How the values were obtained:
[1] = target: human foreskin fibroblast fibronectin (human)
[2] = target: human foreskin fibroblast fibronectin (human); remark: listed apart in the source

Chain of human foreskin fibroblast fibronectin (human) (P02751 32-2477): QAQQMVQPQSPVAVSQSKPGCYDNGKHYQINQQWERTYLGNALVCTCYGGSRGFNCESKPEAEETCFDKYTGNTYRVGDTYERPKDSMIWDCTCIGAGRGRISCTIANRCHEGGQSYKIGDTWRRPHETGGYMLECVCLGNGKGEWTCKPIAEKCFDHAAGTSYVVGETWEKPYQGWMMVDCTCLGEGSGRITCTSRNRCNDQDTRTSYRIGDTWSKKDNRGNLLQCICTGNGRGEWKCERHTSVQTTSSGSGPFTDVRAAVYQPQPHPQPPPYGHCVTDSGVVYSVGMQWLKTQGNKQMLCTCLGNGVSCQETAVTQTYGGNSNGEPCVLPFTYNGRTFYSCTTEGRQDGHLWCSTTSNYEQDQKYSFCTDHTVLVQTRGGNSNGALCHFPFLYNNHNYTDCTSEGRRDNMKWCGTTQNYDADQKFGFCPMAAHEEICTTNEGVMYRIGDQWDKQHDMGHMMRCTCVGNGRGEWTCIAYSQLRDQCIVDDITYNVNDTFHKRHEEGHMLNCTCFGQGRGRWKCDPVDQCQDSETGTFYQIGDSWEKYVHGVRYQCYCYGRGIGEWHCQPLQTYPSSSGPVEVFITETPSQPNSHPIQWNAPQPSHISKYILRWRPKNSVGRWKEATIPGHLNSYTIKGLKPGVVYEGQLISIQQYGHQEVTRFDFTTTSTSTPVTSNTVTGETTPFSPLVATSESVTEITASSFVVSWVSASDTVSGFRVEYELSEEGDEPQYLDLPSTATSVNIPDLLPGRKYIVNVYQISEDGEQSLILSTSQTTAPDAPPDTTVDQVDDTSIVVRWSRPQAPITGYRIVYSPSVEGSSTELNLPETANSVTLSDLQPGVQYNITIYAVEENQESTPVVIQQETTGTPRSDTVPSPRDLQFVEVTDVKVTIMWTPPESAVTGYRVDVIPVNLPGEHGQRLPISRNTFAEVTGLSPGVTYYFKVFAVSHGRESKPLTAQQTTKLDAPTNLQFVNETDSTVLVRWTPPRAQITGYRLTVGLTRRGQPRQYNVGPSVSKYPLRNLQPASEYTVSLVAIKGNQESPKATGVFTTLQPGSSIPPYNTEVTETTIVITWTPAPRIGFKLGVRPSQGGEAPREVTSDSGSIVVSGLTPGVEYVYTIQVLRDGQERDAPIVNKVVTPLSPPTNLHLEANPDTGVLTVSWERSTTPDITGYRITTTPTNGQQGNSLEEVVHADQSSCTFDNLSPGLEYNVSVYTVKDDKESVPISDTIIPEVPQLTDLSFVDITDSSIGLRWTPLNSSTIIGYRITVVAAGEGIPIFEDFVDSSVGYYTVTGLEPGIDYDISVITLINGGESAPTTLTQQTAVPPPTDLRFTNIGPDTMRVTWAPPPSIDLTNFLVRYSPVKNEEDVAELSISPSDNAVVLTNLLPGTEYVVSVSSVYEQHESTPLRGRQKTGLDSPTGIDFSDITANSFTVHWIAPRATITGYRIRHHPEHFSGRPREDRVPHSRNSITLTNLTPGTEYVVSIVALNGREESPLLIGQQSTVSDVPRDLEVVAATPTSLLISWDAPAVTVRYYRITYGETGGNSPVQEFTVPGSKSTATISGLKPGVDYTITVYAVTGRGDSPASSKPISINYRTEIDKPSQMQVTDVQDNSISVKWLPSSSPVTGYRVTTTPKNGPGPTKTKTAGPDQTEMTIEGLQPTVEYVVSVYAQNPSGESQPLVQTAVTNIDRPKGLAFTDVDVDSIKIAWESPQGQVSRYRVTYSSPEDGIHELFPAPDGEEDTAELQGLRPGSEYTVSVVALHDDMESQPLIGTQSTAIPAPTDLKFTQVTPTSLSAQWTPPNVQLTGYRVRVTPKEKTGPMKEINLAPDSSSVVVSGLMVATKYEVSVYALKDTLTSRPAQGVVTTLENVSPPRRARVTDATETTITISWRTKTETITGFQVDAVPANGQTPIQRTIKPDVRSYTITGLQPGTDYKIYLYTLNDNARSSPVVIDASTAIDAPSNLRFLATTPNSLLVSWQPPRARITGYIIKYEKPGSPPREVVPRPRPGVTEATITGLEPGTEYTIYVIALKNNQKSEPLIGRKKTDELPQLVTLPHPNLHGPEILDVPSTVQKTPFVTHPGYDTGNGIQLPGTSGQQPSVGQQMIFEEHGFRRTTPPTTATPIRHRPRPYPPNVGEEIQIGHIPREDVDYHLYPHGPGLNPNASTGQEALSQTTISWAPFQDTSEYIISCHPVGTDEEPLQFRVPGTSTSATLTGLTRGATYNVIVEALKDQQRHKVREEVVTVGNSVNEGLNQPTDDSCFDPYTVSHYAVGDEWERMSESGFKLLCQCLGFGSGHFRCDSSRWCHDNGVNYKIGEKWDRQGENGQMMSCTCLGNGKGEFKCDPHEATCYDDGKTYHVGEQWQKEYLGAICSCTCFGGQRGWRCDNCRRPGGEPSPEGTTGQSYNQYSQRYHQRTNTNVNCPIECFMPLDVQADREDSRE

Row | Binder | reduction by FnbA-2 peptide (10 ug/well, preincubated with the monolayer) of adherence of radiolabelled B314 expressing Tp0136 to C6 (rat) glioma cells [1] | reduction by FnbA-2 peptide (10 ug/well, preincubated with the monolayer) of adherence of radiolabelled B314 expressing Tp0136 to HEK293 cells [1] | average percent binding of radiolabelled B314 expressing Tp0136 to Vero cells [2]
1 | B1 | 25.3% | 18.8% | 6%
2 | B2 | 27.7% | 26.3% | 8%

From PMC6529012
